Reference: US6998260

Target: human fibrinogen (UniProt P02671)
Sequence (P02671 20-629, chain 1 of 3): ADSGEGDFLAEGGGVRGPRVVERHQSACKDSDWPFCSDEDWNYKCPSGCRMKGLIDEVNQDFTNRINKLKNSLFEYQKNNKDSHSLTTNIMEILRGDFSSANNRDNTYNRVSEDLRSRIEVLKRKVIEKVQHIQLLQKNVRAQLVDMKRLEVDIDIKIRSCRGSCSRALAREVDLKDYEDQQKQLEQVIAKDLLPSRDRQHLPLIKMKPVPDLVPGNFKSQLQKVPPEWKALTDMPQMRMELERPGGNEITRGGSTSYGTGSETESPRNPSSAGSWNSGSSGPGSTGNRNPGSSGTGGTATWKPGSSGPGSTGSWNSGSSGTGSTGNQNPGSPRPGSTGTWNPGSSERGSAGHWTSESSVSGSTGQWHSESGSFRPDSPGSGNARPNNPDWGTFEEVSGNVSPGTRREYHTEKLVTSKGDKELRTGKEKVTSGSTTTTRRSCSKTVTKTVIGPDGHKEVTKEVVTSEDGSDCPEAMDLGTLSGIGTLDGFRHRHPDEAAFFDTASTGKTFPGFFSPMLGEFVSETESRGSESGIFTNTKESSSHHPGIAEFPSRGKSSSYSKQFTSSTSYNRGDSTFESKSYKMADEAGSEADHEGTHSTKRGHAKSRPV
Sequence (chain, as listed by the source, chain 2 of 3): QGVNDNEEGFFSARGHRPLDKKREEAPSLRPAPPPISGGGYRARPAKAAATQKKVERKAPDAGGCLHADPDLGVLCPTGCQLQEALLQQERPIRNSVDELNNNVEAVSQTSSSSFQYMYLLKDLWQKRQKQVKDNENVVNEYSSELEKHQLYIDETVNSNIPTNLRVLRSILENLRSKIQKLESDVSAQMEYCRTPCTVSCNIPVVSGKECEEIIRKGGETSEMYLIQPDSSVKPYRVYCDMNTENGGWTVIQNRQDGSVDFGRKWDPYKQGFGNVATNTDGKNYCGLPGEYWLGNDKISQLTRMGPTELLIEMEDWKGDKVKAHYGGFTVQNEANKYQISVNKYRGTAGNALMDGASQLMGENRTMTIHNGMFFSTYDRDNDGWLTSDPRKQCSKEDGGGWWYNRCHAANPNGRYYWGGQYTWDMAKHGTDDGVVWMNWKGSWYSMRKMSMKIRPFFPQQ
Sequence (chain, as listed by the source, chain 3 of 3): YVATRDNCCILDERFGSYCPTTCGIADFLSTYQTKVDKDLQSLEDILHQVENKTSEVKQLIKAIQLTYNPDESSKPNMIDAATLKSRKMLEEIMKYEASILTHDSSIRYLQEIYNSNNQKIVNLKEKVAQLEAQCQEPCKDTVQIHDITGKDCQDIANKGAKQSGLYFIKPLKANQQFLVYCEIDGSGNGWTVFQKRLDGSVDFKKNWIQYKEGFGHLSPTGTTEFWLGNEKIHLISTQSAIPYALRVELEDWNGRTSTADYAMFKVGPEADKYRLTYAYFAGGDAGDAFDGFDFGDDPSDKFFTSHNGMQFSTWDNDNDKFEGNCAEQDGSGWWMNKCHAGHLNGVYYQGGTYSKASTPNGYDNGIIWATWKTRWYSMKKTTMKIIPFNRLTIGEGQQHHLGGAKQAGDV

recombinant human β-I tryptase (from pPIC9-HumTry, expressed in Pichia pastoris), sequence (chain, as listed by the source): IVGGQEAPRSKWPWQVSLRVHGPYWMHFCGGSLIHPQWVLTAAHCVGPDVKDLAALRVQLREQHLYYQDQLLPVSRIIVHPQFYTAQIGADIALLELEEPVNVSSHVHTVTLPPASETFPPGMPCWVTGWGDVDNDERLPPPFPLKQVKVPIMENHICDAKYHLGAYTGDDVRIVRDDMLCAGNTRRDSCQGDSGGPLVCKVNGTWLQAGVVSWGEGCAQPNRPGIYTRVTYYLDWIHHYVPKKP
recombinant human β-II tryptase (from pPIC9-HumTryN102K, expressed in Pichia pastoris), sequence (chain, as listed by the source): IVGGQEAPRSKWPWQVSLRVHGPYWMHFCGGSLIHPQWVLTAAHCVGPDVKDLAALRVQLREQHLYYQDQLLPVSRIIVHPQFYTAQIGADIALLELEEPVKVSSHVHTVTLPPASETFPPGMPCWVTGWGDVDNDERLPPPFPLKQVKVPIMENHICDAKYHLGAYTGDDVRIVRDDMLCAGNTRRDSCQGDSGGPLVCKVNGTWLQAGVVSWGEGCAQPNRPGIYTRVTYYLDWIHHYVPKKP

recombinant human β-II tryptase (from pPIC9-HumTryN102K, expressed in Pichia pastoris)
fibrinogen cleavage (SDS-PAGE of fibrinogen subunits after 60 min incubation): The a and β subunits were efficiently hydrolyzed by the recombinant β-I and β-II tryptase enzymes even during cold incubation.

β-tryptase isolated from a cadaver (native β)
fibrinogen cleavage (SDS-PAGE of fibrinogen subunits after 60 min incubation): Native β-tryptase was less efficient at fibrinogeneolysis

recombinant human β-I tryptase (from pPIC9-HumTry, expressed in Pichia pastoris)
fibrinogen cleavage (SDS-PAGE of fibrinogen subunits after 60 min incubation): The a and β subunits were efficiently hydrolyzed by the recombinant β-I and β-II tryptase enzymes even during cold incubation.
